B1: Lysozyme C, P61626 (parent)
chain: MKALIVLGLVLLSVTVQGKVFERCELARTLKRLGMDGYRGISLANWMCLAKWESGYNTRATNYNAGDRSTDYGIFQINSRYWCNDGKTPGAVNACHLSCSALLQDNIADAVACAKRVVRDPQGIRAWVAWRNRCQNRDVRQYVQGCGV

Variants of: B1
Conditions: Homo sapiens, pH 2.7, Thermal, DSC, glycine 0.05 M, reversible: yes, structure 1LZ1, whole UniProt chain shown

For MKALIVLGLVLLSVTVQGKVFERCELARTLKRLGMDGYRGISLANWMCLAKWESGYNTRATNYNAGDRSTDYGIFQINSRYWCNDGKTPGAVNACHLSCSALLQDNIADAVACAKRVVRDPQGIRAWVAWRNRCQNRDVRQYVQGCGA, the “ddG of mutation (higher = less stable)” value (64.9 °C) was 0.84 kcal/mol, the “heat capacity change of unfolding” value (64.9 °C) was 1.51 kcal/mol/K and the Tm was 62.3 °C. The “change of melting temperature, mutant - wild type (higher = more stable)” value (from here on “change of melting temperature, mutant”) was -2.6 °C, the “heat capacity change of unfolding” value was 1.51 kcal/mol/K and the “unfolding enthalpy (calorimetric)” value was 111 kcal/mol. The “unfolding enthalpy (van 't Hoff)” value was 119 kcal/mol.

With MKALIVLGLVLLSVTVQGKVFERCELARTLKRLGMDGYRGISLANWMCLAKWESGYNTRATNYNAGDRSTDYGIFQINSRYWCNDGKTPGAVNACHLSCSALLQDNIADAVACAKRVVRDPQGIRAWAAWRNRCQNRDVRQYVQGCGV the “ddG of mutation (higher = less stable)” value (64.9 °C) was -0.53 kcal/mol, the “heat capacity change of unfolding” value (64.9 °C) was 1.24 kcal/mol/K and the Tm was 66.4 °C. The “change of melting temperature, mutant” value was 1.5 °C, the “heat capacity change of unfolding” value was 1.24 kcal/mol/K and the “unfolding enthalpy (calorimetric)” value was 116 kcal/mol. The “unfolding enthalpy (van 't Hoff)” value was 122 kcal/mol.

With MKALIVLGLVLLSVTVQGKVFERCELARTLKRLGMDGYRGISLANWMCLAKWESGYNTRATNYNAGDRSTDYGIFQINSRYWCNDGKTPGAVNACHLSCSALLQDNIADAAACAKRVVRDPQGIRAWVAWRNRCQNRDVRQYVQGCGV the Tm was 62.6 °C, the “change of melting temperature, mutant” value was -2.3 °C and the “heat capacity change of unfolding” value was 1.53 kcal/mol/K. For the same variant, the “unfolding enthalpy (calorimetric)” value was 112 kcal/mol and the “unfolding enthalpy (van 't Hoff)” value was 120 kcal/mol.

For MKALIVLGLVLLSVTVQGKVFERCELARTLKRLGMDGYRGISLANWMCLAKWESGYNTRATNYNAGDRSTDYGIFQINSRYWCNDGKTPGAANACHLSCSALLQDNIADAVACAKRVVRDPQGIRAWVAWRNRCQNRDVRQYVQGCGV, the “ddG of mutation (higher = less stable)” value (64.9 °C) was 0.36 kcal/mol, the “heat capacity change of unfolding” value (64.9 °C) was 1.48 kcal/mol/K and the Tm was 63.8 °C. For the same variant, the “change of melting temperature, mutant” value was -1.1 °C, the “heat capacity change of unfolding” value was 1.48 kcal/mol/K and the “unfolding enthalpy (calorimetric)” value was 114 kcal/mol. For the same variant, the “unfolding enthalpy (van 't Hoff)” value was 120 kcal/mol.

In the case of MKALIVLGLVLLSVTVQGKVFERCELARTLKRLGMDGYRGISLANWMCLAKWESGYNTRATNYNAGDRSTDYGIFQINSRYWCNDGKTPGAVNACHLSCSALLQDNIADAVACAKRVARDPQGIRAWVAWRNRCQNRDVRQYVQGCGV, the “ddG of mutation (higher = less stable)” value (64.9 °C) is reported as 0.26 kcal/mol, the “heat capacity change of unfolding” value (64.9 °C) is reported as 1 kcal/mol/K and the Tm is reported as 64.1 °C. For the same variant, the “change of melting temperature, mutant” value was -0.8 °C, the “heat capacity change of unfolding” value was 1 kcal/mol/K and the “unfolding enthalpy (calorimetric)” value was 110 kcal/mol. The “unfolding enthalpy (van 't Hoff)” value was 120 kcal/mol.

With MKALIVLGLVLLSVTVQGKVFERCELARTLKRLGMDGYRGISLANWMCLAKWESGYNTRATNYNAGDRSTDYGIFQINSRYWCNDGKTPGAVNACHLSCSALLQDNIADAVACAKRAVRDPQGIRAWVAWRNRCQNRDVRQYVQGCGV the “ddG of mutation (higher = less stable)” value (64.9 °C) was 0.98 kcal/mol, the “heat capacity change of unfolding” value (64.9 °C) was 1.58 kcal/mol/K and the Tm was 61.9 °C. The “change of melting temperature, mutant” value was -3 °C, the “heat capacity change of unfolding” value was 1.58 kcal/mol/K and the “unfolding enthalpy (calorimetric)” value was 111 kcal/mol. The “unfolding enthalpy (van 't Hoff)” value was 117 kcal/mol.

For MKALIVLGLVLLSVTVQGKAFERCELARTLKRLGMDGYRGISLANWMCLAKWESGYNTRATNYNAGDRSTDYGIFQINSRYWCNDGKTPGAVNACHLSCSALLQDNIADAVACAKRVVRDPQGIRAWVAWRNRCQNRDVRQYVQGCGV, the “ddG of mutation (higher = less stable)” value (64.9 °C) was 1.51 kcal/mol, the “heat capacity change of unfolding” value (64.9 °C) was 1.56 kcal/mol/K and the Tm was 60.3 °C. For the same variant, the “change of melting temperature, mutant” value was -4.6 °C, the “heat capacity change of unfolding” value was 1.56 kcal/mol/K and the “unfolding enthalpy (calorimetric)” value was 112 kcal/mol. For the same variant, the “unfolding enthalpy (van 't Hoff)” value was 114 kcal/mol.

For MKALIVLGLVLLSVTVQGKVFERCELARTLKRLGMDGYRGISLANWMCLAKWESGYNTRATNYNAGDRSTDYGIFQINSRYWCNDGKTPGAVNACHLSCSALLQDNIADAVACAKRVVRDPQGIRAWVAWRNRCQNRDARQYVQGCGV, the “ddG of mutation (higher = less stable)” value (64.9 °C) was 1.44 kcal/mol, the “heat capacity change of unfolding” value (64.9 °C) was 1.53 kcal/mol/K and the Tm was 60.4 °C. For the same variant, the “change of melting temperature, mutant” value was -4.5 °C, the “heat capacity change of unfolding” value was 1.53 kcal/mol/K and the “unfolding enthalpy (calorimetric)” value was 110 kcal/mol. For the same variant, the “unfolding enthalpy (van 't Hoff)” value was 112 kcal/mol.

For MKALIVLGLVLLSVTVQGKVFERCELARTLKRLGMDGYRGISLANWMCLAKWESGYNTRATNYNAGDRSTDYGIFQINSRYWCNDGKTPGAVNACHLSCSALLQDNIADAVACAKRVVRDPQGIRAWVAWRNRCQNRDVRQYAQGCGV, the “ddG of mutation (higher = less stable)” value (64.9 °C) was 1.32 kcal/mol, the “heat capacity change of unfolding” value (64.9 °C) was 1.29 kcal/mol/K and the Tm was 60.9 °C. For the same variant, the “change of melting temperature, mutant” value was -4 °C, the “heat capacity change of unfolding” value was 1.29 kcal/mol/K and the “unfolding enthalpy (calorimetric)” value was 113 kcal/mol. For the same variant, the “unfolding enthalpy (van 't Hoff)” value was 116 kcal/mol.
